# Test results: the RNAGym collection of RNA variant scans (doi:10.1073/pnas.2313332121)
# B1: TPR t1 (parent)
# chain: GACCAAUCUGCCCUCAGAGCUCGAGAACAUCUUCGGAUGCAGAGGAGGCAGGCUUCGGUGGCGCGAUAGCGCCAACGUCCUCAACCUCCAAUGCAUCCCACCACAUGAUGAUGCCUGAAGAGCCUUGGUUUUUUG
# Variants of: B1
# Assay: polymerase ribozyme fitness, log enrichment relative to wild type (log ratio); higher = more active; in vitro selection for triplet polymerase activity
# In short: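 Fitness compares each genotype's enrichment to that of the wild type on a logarithmic scale, averaging replicates with inverse-variance weights. The logarithm is base 2. Enrichment came from Illumina sequencing of input and output libraries after one triplicate round of in vitro selection, which included frozen incubation at −7 °C, of PCR-built, transcribed mutant libraries of each subunit of a heterodimeric triplet polymerase ribozyme. Only genotypes with ≥10 input reads and ≥1 read per output were kept.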
row,Variant,polymerase ribozyme fitness (log ratio)
1,G17U U109A,-6.56
2,A18U,-2.13
3,A18C,-2.11
4,A18G,-1.83
5,G17U U21A,-3.26
6,A18G C53A C72U C85G,-4.61
7,G19U U87A U106C A118U,-4.56
8,G17U C73G C124G G128C,-2.67
9,G19A U78G A84U C115U A121C,-5.73
10,A18G U59A A111U,-6.09
11,G17A G57C,-2.86
12,G19A C73U C86U U96A G110A,-5.32
13,G17A A43G G47U G120C G135C,-2.39
14,A18C U92C C97U,-4.36
15,A18G C123U,-1.44
16,G19A C88A A95C C114G,-4.8
17,A18C U87G C89U,-2.03
18,A18U C20U A50C G69U,-1.33
19,G17A G128C,-5.29
20,A18U C40A C70A A121C,-5.25
21,A18C C72U C73U U106A C124U,-1.79

row,Variant,polymerase ribozyme fitness (log ratio)
1,A18U A27U C98A G110A,-7.19
2,G19C C72G,-3.09
3,G17U C72U U130A,-2.54
4,G17U C101A G107U G120C G127A U132C,-6.51
5,G19U C82A,-3.28
6,G17U A18U G39U C123A,-4.71
7,A18C C20U C53U,-1.72
8,G19U G39U G93A U106C G120U,-5.8
9,G19U A43U G47U U112A G120A,-2.08
10,A18G G113C,-1.3
11,A18C A27G,-5.05
12,G17A C56A,-2.66
13,G19A A43U C49U C124U,-2.19
14,A18C G63C,-4
15,G17U A18U G35C C72G G77U A103U U112G,-6.95
16,A18U C70A G113A G122A,-4.58
17,G19A G36U,-3.84
18,A18G G61U C94G G113U,-3.32
19,G19A G71A,-3.99
20,G19U C20U C72A U131A,-3.4
21,G19U U21A G47C A90C G113C,-4.49

row,Variant,polymerase ribozyme fitness (log ratio)
1,A18G G44A C72G,-5.19
2,A18C C53G G60U U116G,-2.87
3,G17C G120A,-3.31
4,G17A G52A A118G,-4.15
5,G19A G44U G48C C49A C53A G69U C88G C104A G135C,-2.97
6,G17U A24G A26G U112A,-6.66
7,G17A C20G,-4.82
8,G17A C20U,-3.63
9,A18G U92C C104U G117U C123A,-2.56
10,A18G A41C A43G G57U,-4.59
11,A18G A50U C56A C79A C101U A118U C124U,-7.24
12,G17C A41G A91U,-4.31
13,G17U A43U G48U A74G,-3.04
14,A18U C79A,-4.95
15,G19C G45A G60A U106A,-4.35
16,G19U G47C C97U C114G,-2.97
17,A18G G36A U116C A118G,-2.17
18,G17U C70U,-3.3
19,A18U G42U G63C A66G C123U,-4.29
20,G19U C64U,-2.87
21,A18G C53A A100C A103G C114A,-5.14

row,Variant,polymerase ribozyme fitness (log ratio)
1,G17A C20A C31G G36U A46C C124A,-7.12
2,G17U C124A,-1.01
3,G17U A74U,-3.16
4,G17U C56G G113A,-5.78
5,A18C C22U C73A A121U,-5.5
6,G17U G63C C73U,-1.67
7,A18G U67A C102U C123A,-5.64
8,G19U G39U G48A A111G,-4.12
9,G17C C72U,-4.11
10,A18U A37C C101A,-4.02
11,G17U U21A U112C C123A,-3.07
12,A18U U54G C114U,-4.87
13,G19U A26U C64U U78C C114A,-1.82
14,G19A A43U C53U C56A,-3.04
15,G17U G60U C88U C97U G120A,-2.79
16,G17U G117C,-5.24
17,A18C G35A U59C U112A,-6.14
18,G17U U130A,-3.3
19,G17U U130C,-1.79
20,G19A C64U,-2.88
21,G17C C64U,-4.22
